What was measured:
[1] = test system: NC/Nga mice modeling atopic dermatitis; assay: Haptene (DNFB) treatment of mice modeling atopic dermatitis, observation of skin inflammation; assay type: in vivo, mouse; settings: haptene (0.1% DNFB, once a week, 4 weeks) applied; lactoferrin 1 μg/ml in drinking water; compared to haptene-treated mice not given lactoferrin
Experimental: (§1) Six-week-old male mice (NC/Nga mice) modeling atopic dermatitis were obtained (NC/Nga slc, Sankyo Labo Service Corporation) and raised under conventional conditions. […] In view of the above, a 0.1% DNFB solution (haptene) was applied to the skin of the mice on both ears as well as the right and left sides of the back once a week for a total of 4 weeks.
(§2) To relieve inflammation caused by atopic dermatitis, lactoferrin was dissolved in drinking water at 1 μg/ml and administered.
(§3) Three mice were tested under each of the following experimental conditions: (1) haptene (−)/lactoferrin (−), (2) haptene (−)/lactoferrin (+), (3) haptene (+)/lactoferrin (−), and (4) haptene (+)/lactoferrin (+).
When raised with haptene treatment in a conventional environment, the mice (NC/Nga mice) modeling atopic dermatitis used in this study developed a macroscopically noticeable dermatitis very similar to atopic dermatitis after 4 weeks of haptene treatment. In this study, the mice were fed with drinking water mixed with lactoferrin, a substance shown to be effective on atopic dermatitis (a protein with a molecular weight of 80,000 found in saliva and blood and bonding with Fe ions).

[2] = test system: skin tissues of NC/Nga mice modeling atopic dermatitis; assay: Western blotting of protein expression in skin tissues of mice modeling atopic dermatitis; assay type: in vivo, mouse
Experimental: as §1, §2, §3
Skin tissues were cut out from mice treated with haptene/lactoferrin for 4 weeks and the tissue strips were cut into small pieces with a knife, after which the tissue pieces were transferred into a centrifugal tube whose tare weight had been measured beforehand, to measure the tissue weight. Different buffers were added by different amounts, such as tissue weight×0.85 mg Urea, tissue weight×0.1 μl 1.5% SDS, tissue weight×0.1 μl 8.5% Triton X-100, and tissue weight×0.05 μl 2-ME, and homogenized using a HG30 homogenizer (Hitachi, Ltd.). […] Protein content was quantified using the dot blotting method.
SDS-PAGE was performed with a Laemmli Tris-Glycin system using a Western blotting sample. […] If HRP labeled anti-mouse IgG (Amersham Bioscience, Inc.) (1:1000 dilution), HRP labeled anti-rabbit IgG (Amersham Bioscience, Inc.) (1:1000 dilution), HRP labeled anti-rat IgG (Amersham Bioscience, Inc.) (1:1000 dilution) or HRP labeled anti-goat IgG (Santa Cruz Biotechnology, Inc.) (1:1000 dilution) was used as the secondary antibody, an enhanced chemiluminescence (ECL) kit (Amersham Bioscience, Inc.) was used to implement detection by means of fluorescence color development. […]

B1: lactoferrin (protein, UniProt P02788 20-710, looked up)
Lactotransferrin: GRRRSVQWCAVSQPEATKCFQWQRNMRKVRGPPVSCIKRDSPIQCIQAIAENRADAVTLDGGFIYEAGLAPYKLRPVAAEVYGTERQPRTHYYAVAVVKKGGSFQLNELQGLKSCHTGLRRTAGWNVPIGTLRPFLNWTGPPEPIEAAVARFFSASCVPGADKGQFPNLCRLCAGTGENKCAFSSQEPYFSYSGAFKCLRDGAGDVAFIRESTVFEDLSDEAERDEYELLCPDNTRKPVDKFKDCHLARVPSHAVVARSVNGKEDAIWNLLRQAQEKFGKDKSPKFQLFGSPSGQKDLLFKDSAIGFSRVPPRIDSGLYLGSGYFTAIQNLRKSEEEVAARRARVVWCAVGEQELRKCNQWSGLSEGSVTCSSASTTEDCIALVLKGEADAMSLDGGYVYTAGKCGLVPVLAENYKSQQSSDPDPNCVDRPVEGYLAVAVVRRSDTSLTWNSVKGKKSCHTAVDRTAGWNIPMGLLFNQTGSCKFDEYFSQSCAPGSDPRSNLCALCIGDEQGENKCVPNSNERYYGYTGAFRCLAENAGDVAFVKDVTVLQNTDGNNNEAWAKDLKLADFALLCLDGKRKPVTEARSCHLAMAPNHAVVSRMDKVERLKQVLLHQQAKFGRNGSDCPDKFCLFQSETKNLLFNDNTECLARLHGKTTYEKYLGPQYVAGITNLKKCSTSPLLEACEFLRK
notes: a protein with a molecular weight of 80,000 found in saliva and blood and bonding with Fe ions
inflammation on the back (skin condition, FIG. 1) [1]: less inflammation
amount of expression of Annexin II, Enolase 1 and PARK7 (all other than FABP-4) (FIG. 5) ([2]; haptene-treated mice also given lactoferrin, to a level close to non-haptene-treated control mice): recovered
amounts of expression of Galectin-1, -4, -7 and -8 (FIG. 3) ([2]; haptene-treated mice also given lactoferrin, to levels close to non-haptene-treated control mice): recovered
Moesin, Ezrin and Radixin severed types of low molecular weight (50-kDa), increased by haptene treatment (FIG. 4) ([2]; haptene-treated mice, lactoferrin administration): did not decrease

Source: patent US20090263792A1, “ATOPIC DERMATITIS MARKER AND TECHNIQUE OF USING THE SAME” (FANCL CORPORATION, priority 2005, published 2009)
